Here are results for 2 molecules from publication PMC5132341, “Malaria parasite CelTOS targets the inner leaflet of cell membranes for pore-dependent disruption” (eLife, 2016).

Data set [1] has as its target Plasmodium vivax cell-traversal protein for ookinetes and sporozoites (PvCelTOS), amino acids 36-196 (Plasmodium vivax). As to the kind of experiment: AUC; sedimentation equilibrium, 10°C, 150 mM NaCl, 10 mM HEPES pH 7.4, 12,000 and 15,000 rpm; PfCelTOS at 25, 36 and 46 µM, PvCelTOS at 29, 41 and 53 µM; single component model.
Data set [2] concerns the molecule itself. Described as above.

As usually defined, the stoichiometry N is a count of units in the complex or per binding partner.

For “Plasmodium vivax cell-traversal protein for ookinetes and sporozoites (PvCelTOS), amino acids 36-196 (domain or fragment)”, the stoichiometry N in data set [1] came to 2.

B1: Plasmodium falciparum cell-traversal protein for ookinetes and sporozoites (PfCelTOS), amino acids 25-182 (domain or fragment)
chain: FRGNNGHNSSSSLYNGSQFIEQLNNSFTSAFLESQSMNKIGDDLAETISNELVSVLQKNSPTFLESSFDIKSEVKKHAKSMLKELIKVGLPSFENLVAENVKPPKVDPATYGIIVPVLTSLFNKVETAVGAKVSDEIWNYNSPDVSESEESLSDDFFD
notes: CelTOS of Plasmodium falciparum, UniProtKB Q8I5P1, amino acids 25-182, codon-optimized gene; No cleavage of the hexahistidine tag is described; the same preparation is detected with an anti-His antibody in the lipid strip assay, so the tag was probably kept; also called Antigen 2; source: E. coli, purified (Nickel-NTA chromatography, gel filtration on Superdex 200)
With B1, in data set [2], the “stoichiometry N” value worked out at 2.
